This note sets out measurements from the Human Domainome abundance scans (Beltran et al. 2025).

The labels stand for the following.
B1: Zinc finger homeobox protein 3, residues 2244 to 2299; numbered along this chain, Q15911 (parent)
chain: SSRTRFTDYQLRVLQDFFDANAYPKDDEFEQLSNLLNLPTRVIVVWFQNARQKARK

± gives the uncertainty stated by the source.

Variants of B1 are the subject of the data set. Briefly: abundance fitness (aPCA) (normalised: wild type 0, dead -1); higher = more abundant; growth selection in yeast, the domain comes from the species named. The following applies: Homo sapiens.
For the variant SSRTRFTDYQLRVLQDFFDENAYPKDDEFEQLSNLLNLPTRVIVVWFQNARQKARK, the abundance fitness is -0.115 ± 0.13.

For the variant SSRTRFTDYQLRVLQDFFDYNAYPKDDEFEQLSNLLNLPTRVIVVWFQNARQKARK, the abundance fitness is -0.291 ± 0.23.

With SSRTRFTDYQLRVLQDFFDANAYPKDDEFEQLSNLLNLPTRVIVVWFQNNRQKARK, the abundance fitness was determined as 0.009 ± 0.097.

In the case of SSRTRFTDYQLRVLQDFFDANAYPKDDEFEQLSNTLNLPTRVIVVWFQNARQKARK, the abundance fitness came out at 0.117 ± 0.13.

On to SSRTRFTDYQLRVLQDFFDANAYPKDDEFEQLSNYLNLPTRVIVVWFQNARQKARK, for which the abundance fitness was -0.129 ± 0.16.

Consider SSRTRFTDYQLRVLQDFFDANAYPKDDEFEQLSNFLNLPTRVIVVWFQNARQKARK, for which the abundance fitness is -0.382 ± 0.25.

SSRTRFTDYQLRVLQDFFDANAYPKDDEFEQLSNMLNLPTRVIVVWFQNARQKARK: the abundance fitness is 0.085 ± 0.13.

Consider SSRTRFTDYQLRVLQDFFDANAYPKTDEFEQLSNLLNLPTRVIVVWFQNARQKARK, for which the abundance fitness came out at 0.021 ± 0.12.

Turning to SSRTRFTDYQLRVLQDFFDANAYPKKDEFEQLSNLLNLPTRVIVVWFQNARQKARK, the abundance fitness is -0.1 ± 0.19.

On to SSRTRFTDYQLRVLQDFFDANAYPKQDEFEQLSNLLNLPTRVIVVWFQNARQKARK, for which the abundance fitness was -0.188 ± 0.22.

Turning to SSRSRFTDYQLRVLQDFFDANAYPKDDEFEQLSNLLNLPTRVIVVWFQNARQKARK, the abundance fitness is 0.024 ± 0.093.

For SSRTRFTDYQLRVLQDFFDANAYPKDDEFEQLSNLLNLPTRVIVVWFQNARQWARK, the abundance fitness was -0.083 ± 0.16.

Take SSRTRFTDYQLRVLQDFFDANAYPKDDEFEQLSNLLNLPTRVIVVAFQNARQKARK: the abundance fitness is -0.86 ± 0.15.

In the case of SSRTRFTDYQLRVLQDFFDANAYPKDDEFEQLSNLLNLPTRVIVVQFQNARQKARK, the abundance fitness was -1.17 ± 0.24.

Regarding SSRTRFTDYQLRVLQDFFDANAYPKDDEFEQLSNLLNLPTRVIVVWFKNARQKARK, the abundance fitness is -0.034 ± 0.16.

Consider SSRTRFTDYQLRVLQDFFDANAYPKDDEFEQLSNLLNLPTRVIVVWFVNARQKARK, for which the abundance fitness is -0.066 ± 0.12.

As to SSRTRFTDYQLRVLQDFFDANAYPKDDEFEQLSNLLNLPTRVIVIWFQNARQKARK, the abundance fitness is -0.055 ± 0.098.

Turning to SSRTRFTDYQLRVLQDFFDANAYPKDDEFEQLSNLLNLPTRVIVYWFQNARQKARK, the abundance fitness was -0.19 ± 0.11.

Turning to SSRTRFTDYQLRVLQDFFDANAYPKDDEFEQLSNLLNLPTRVIVCWFQNARQKARK, the abundance fitness stood at 0.088 ± 0.097.

For SSRTRFYDYQLRVLQDFFDANAYPKDDEFEQLSNLLNLPTRVIVVWFQNARQKARK, the abundance fitness is -0.446 ± 0.2.

For SSRTRFTDYQLRVLQDFFDANAYPKDDEFEQLSNLLNLPTRVIVVWFQIARQKARK, the abundance fitness was -0.259 ± 0.17.

Take SSRTRFTDYQLRVLQDFFDANAYPKDDEFEQLSNLLNLPTRVIVVWFQYARQKARK: the abundance fitness is -0.497 ± 0.25.

SSRTRFTDYQLRVLQDFFDANAYPKDDEFEQLSNLLNLPTRWIVVWFQNARQKARK: the abundance fitness is -0.146 ± 0.11.

SSRTRFTDYQLRVLQDFFDANAYPKDDEFEQLSNLLNLPTRPIVVWFQNARQKARK: the abundance fitness was 0.026 ± 0.14.

For the variant SSRTRFTDYQLRVLQDFFWANAYPKDDEFEQLSNLLNLPTRVIVVWFQNARQKARK, the abundance fitness is -0.329 ± 0.25.

As to SSRTRFTDYQLRVLQDFFDANAYPKDDEFEQSSNLLNLPTRVIVVWFQNARQKARK, the abundance fitness is -0.812 ± 0.13.

Take SSRTRFTDYQLRVLQDFFDANAYPKDDEFEQMSNLLNLPTRVIVVWFQNARQKARK: the abundance fitness was determined as 0.003 ± 0.11.

Take SSRTRFTDYQLRVLQDFFDANAYPKDDEFEQVSNLLNLPTRVIVVWFQNARQKARK: the abundance fitness is -0.151 ± 0.083.

As for SSRTRFTDIQLRVLQDFFDANAYPKDDEFEQLSNLLNLPTRVIVVWFQNARQKARK, the abundance fitness is -0.383 ± 0.22.

Take SSRTRFTDWQLRVLQDFFDANAYPKDDEFEQLSNLLNLPTRVIVVWFQNARQKARK: the abundance fitness is -0.217 ± 0.099.

On to SSRTRFTDYQLRVLQDFFDANAYPKDDEFEQLSNLLNLPTRVIVVWKQNARQKARK, for which the abundance fitness is -0.983 ± 0.2.

Turning to SSRTRFTDYQLRVLQDFFDANAYPKDDEFEQLSNLLNLPTRVIVVWFQNARQKACK, the abundance fitness is -0.229 ± 0.12.

Turning to SSRTRFTDYQLRVLQDFFDANAYPKDDEFEQLSNLLNLPTRVIVVWFQNARQKAHK, the abundance fitness turned out to be 0.104 ± 0.12.

For SSRTRFTDYQLRVLQDFFDANAYPKDDEFEQLSNLLNLPTRVIVVWFQNARQKATK, the abundance fitness is -0.043 ± 0.089.

As to SSRTRFTDYQLRVLQDFFDANAYPKDDEFEQLSNLLNLLTRVIVVWFQNARQKARK, the abundance fitness is -0.786 ± 0.091.

Consider SSRTRFTDYQLRVLQDFFDANAYPKDDEFEQLSNLLNLCTRVIVVWFQNARQKARK, for which the abundance fitness was -0.634 ± 0.12.

In the case of SSRTRFTDYQLRVLQDFFDANAYPKDDEFEQLSNLLNLETRVIVVWFQNARQKARK, the abundance fitness is -0.06 ± 0.15.

SSRTRFTDYQWRVLQDFFDANAYPKDDEFEQLSNLLNLPTRVIVVWFQNARQKARK: the abundance fitness is -0.361 ± 0.11.

With SSRTRFTDYQLRHLQDFFDANAYPKDDEFEQLSNLLNLPTRVIVVWFQNARQKARK, the abundance fitness is -0.178 ± 0.17.

For the variant SSRTRFTDYQLRWLQDFFDANAYPKDDEFEQLSNLLNLPTRVIVVWFQNARQKARK, the abundance fitness was -0.794 ± 0.14.

Consider SSRTRFTDYQLRVLQDFFDAVAYPKDDEFEQLSNLLNLPTRVIVVWFQNARQKARK, for which the abundance fitness is -0.422 ± 0.099.

With SSRTRFTDYQLRVLQDFFDAAAYPKDDEFEQLSNLLNLPTRVIVVWFQNARQKARK, the abundance fitness is -0.428 ± 0.1.

On to SSRTRFTDYQLRVLQDFFDANAYPKDDEFEQLSNLLNLPTIVIVVWFQNARQKARK, for which the abundance fitness turned out to be 0.052 ± 0.091.

In the case of SSRTRFTDYQLRVLQDFFDANAYPKDDEFEQLSNLANLPTRVIVVWFQNARQKARK, the abundance fitness was -0.238 ± 0.13.

As for SSRTRFTDYQLRVLQDFFDANAYPKDDDFEQLSNLLNLPTRVIVVWFQNARQKARK, the abundance fitness was found to be 0.2 ± 0.22.

Consider SSRTRFTDYQLKVLQDFFDANAYPKDDEFEQLSNLLNLPTRVIVVWFQNARQKARK, for which the abundance fitness amounted to 0.169 ± 0.24.

Take SSRTRFTDYQLCVLQDFFDANAYPKDDEFEQLSNLLNLPTRVIVVWFQNARQKARK: the abundance fitness was -0.531 ± 0.096.
